Values joined by “and” are separate entries in the source; they are usually repeats but may differ in a detail not shown here. Equal values may be shown once.
B1: DC XT45 (dimer in-line fusion XT control) (designed binder)
chain: MIPGGLSEAKPATPEIQEIVDKVKPQLEEKTGETYGKLEAVQYKTQVVGGGGGGGGGGTNYYIKVRAGDNKYMHLKVFKSLGGGGGGGGGEDLVLTGYQVDKNKDDELTGFAEAAAKEAAAKEAAAKEAAAKEAAAKEAAAKMIPRGLSEAKPATPEIQEIVDKVKPQLEEKTNETYGKLEAVQYKTQVLANFFQRRWPGSTNYYIKVRAGDNKYMHLKVFNGPWKFRNTDRGADRVLTGYQVDKNKDDELTGF
B2: Clone 80 XT34 (anti-PD-L1 type III AFFIMER® XT in-line fusion monomer XT) (designed binder)
chain: MIPGGLSEAKPATPEIQEIVDKVKPQLEEKTGETYGKLEAVQYKTQVVRRKHFPQWPGTNYYIKVRAGDNKYMHLKVFKSLDLQPREVFQEDLVLTGYQVDKNKDDELTGFAEAAAKEAAAKEAAAKEAAAKEAAAKEAAAKMIPRGLSEAKPATPEIQEIVDKVKPQLEEKTNETYGKLEAVQYKTQVLANFFQRRWPGSTNYYIKVRAGDNKYMHLKVFNGPWKFRNTDRGADRVLTGYQVDKNKDDELTGFHHHHHH
notes: Made in E. coli; LC/MS found a +42-43 Da species, assigned as acetylated; also called XT34_1; XT34_2
B3: Clone 80 XT41 (designed binder)
chain: MIPGGLSEAKPATPEIQEIVDKVKPQLEEKTGETYGKLEAVQYKTQVVRRKHFPQWPGTNYYIKVRAGDNKYMHLKVFKSLDLQPREVFQEDLVLTGYQVDKNKDDELTGFGGGGSGGGGSGGGGSGGGGSGGGGSGGGGSMIPRGLSEAKPATPEIQEIVDKVKPQLEEKTNETYGKLEAVQYKTQVLANFFQRRWPGSTNYYIKVRAGDNKYMHLKVFNGPWKFRNTDRGADRVLTGYQVDKNKDDELTGFGGGGSGGGGSGGGGSGGGGSGGGGSGGGGSMIPRGLSEAKPATPEIQEIVDKVKPQLEEKTNETYGKLEAVQYKTQVLANFFQRRWPGSTNYYIKVRAGDNKYMHLKVFNGPWKFRNTDRGADRVLTGYQVDKNKDDELTGF
notes: One Clone 80 and two HSA-41 units joined by flexible (G4S)6 linkers; Made in E. coli; No tag is stated for this construct
B4: DC XT46 (trimer in-line fusion XT control) (designed binder)
chain: MIPGGLSEAKPATPEIQEIVDKVKPQLEEKTGETYGKLEAVQYKTQVVGGGGGGGGGGTNYYIKVRAGDNKYMHLKVFKSLGGGGGGGGGEDLVLTGYQVDKNKDDELTGFAEAAAKEAAAKEAAAKEAAAKEAAAKEAAAKMIPGGLSEAKPATPEIQEIVDKVKPQLEEKTGETYGKLEAVQYKTQVVGGGGGGGGGGTNYYIKVRAGDNKYMHLKVFKSLGGGGGGGGGEDLVLTGYQVDKNKDDELTGFAEAAAKEAAAKEAAAKEAAAKEAAAKEAAAKMIPRGLSEAKPATPEIQEIVDKVKPQLEEKTNETYGKLEAVQYKTQVLANFFQRRWPGSTNYYIKVRAGDNKYMHLKVFNGPWKFRNTDRGADRVLTGYQVDKNKDDELTGF
B5: HSA-41 (anti-serum albumin AFFIMER® polypeptide, monomer) (designed binder)
chain: MIPRGLSEAKPATPEIQEIVDKVKPQLEEKTNETYGKLEAVQYKTQVLANFFQRRWPGSTNYYIKVRAGDNKYMHLKVFNGPWKFRNTDRGADRVLTGYQVDKNKDDELTGF
notes: No tags are stated; also called HSA-41 monomer; XT polypeptide
B6: Clone 80 XT40 (designed binder)
chain: MIPGGLSEAKPATPEIQEIVDKVKPQLEEKTGETYGKLEAVQYKTQVVRRKHFPQWPGTNYYIKVRAGDNKYMHLKVFKSLDLQPREVFQEDLVLTGYQVDKNKDDELTGFAEAAAKEAAAKEAAAKEAAAKEAAAKEAAAKMIPRGLSEAKPATPEIQEIVDKVKPQLEEKTNETYGKLEAVQYKTQVLANFFQRRWPGSTNYYIKVRAGDNKYMHLKVFNGPWKFRNTDRGADRVLTGYQVDKNKDDELTGFFAEAAAKEAAAKEAAAKEAAAKEAAAKEAAAKMIPGGLSEAKPATPEIQEIVDKVKPQLEEKTGETYGKLEAVQYKTQVVRRKHFPQWPGTNYYIKVRAGDNKYMHLKVFKSLDLQPREVFQEDLVLTGYQVDKNKDDELTGF
notes: HSA-41 sits in the middle position between two Clone 80 units, joined by rigid A(EAAAK)6 linkers; Made in E. coli; No tag is stated for this construct

Key:
[1] = biological target: T1, human serum albumin (HSA) (human, UniProt P02768 25-609); assay: SPR (Biacore 8K): HSA amine-coupled on a CM5 chip, AFFIMER as analyte, pH 7.4, 1:1 Langmuir fit
T1 construct: The assays used bought HSA (Sigma #A37812 in the SPR work); also called HuSA
Description: (§1) For the HSA binding kinetic analysis, HSA (Sigma #A37812) was immobilized on a CM5 chip surface using amine coupling in 10 mM sodium acetate (pH 5.0) (Cytvia). […] The chip surface was regenerated with 3 mM NaOH for 20 seconds at a flow rate of 20 μl/min. The kinetic data was blank subtracted and fit to a 1:1 Langmuir binding model (BIAcore evaluation software; Cytiva).

[2] = biological target: T1, human serum albumin (HSA); assay: HSA binding ELISA: HSA coated, bound AFFIMER detected with biotinylated anti-cystatin A antibody and streptavidin-HRP
Description: (§2) Plates were washed and AFFIMER® polypeptides were detected using streptavidin-HRP for 30 min. After the last washing step, the TMB substrate was added for the development of the experiment and plates were read at 450 nm. The EC₅₀ was then calculated using the interpolated non-linear four-parameters standard curve.

[3] = biological target: T1, human serum albumin (HSA); assay: SPR (Biacore 8K): HSA amine-coupled on a CM5 chip, AFFIMER as analyte, pH 6.0, 1:1 Langmuir fit
Description: as §1

[4] = biological target: T2, PD-L1 on cells (NCI-H441 cells; aAPC PD-L1/CHO-K1 cells, Promega) (human, UniProt Q9NZQ7 19-290); assay: flow cytometry on PD-L1 expressing cells
T2 construct: whole, on cells; also called human PD-L1-expressing CHO-K1 cells; H441 cells endogenously expressing PD-L1

[5] = biological target: T3, human PD-L1-Fc (R&D Systems) (human, UniProt Q9NZQ7 19-239); assay: human PD-L1-Fc binding ELISA: huPD-L1-Fc coated, anti-cystatin A detection, with 10 µM HSA in the assay buffer
T3 construct: Bought reagent; also called huPD-L1-Fc; huPD-L1; not shown: Fc part of the bought fusion
Description: as §2

[6] = biological target: T3, human PD-L1-Fc (R&D Systems); assay: human PD-L1-Fc binding ELISA: huPD-L1-Fc coated, anti-cystatin A detection, no HSA in the assay buffer
Description: as §2

[7] = biological target: T3, human PD-L1-Fc (R&D Systems); assay: SPR (Biacore 8K): human PD-L1-Fc amine-coupled on a CM5 chip, AFFIMER as analyte, 1:1 Langmuir fit
[8] = biological target: T3, human PD-L1-Fc (R&D Systems); assay: human PD-L1-Fc/HSA bridging ELISA: huPD-L1-Fc coated, AFFIMER titrated with 10 µM HSA, detection with HRP-conjugated anti-HSA antibody (the signal needs PD-L1 and HSA bound at once)
Description: After saturation with 5% casein/PBS buffer, the plates were washed and a dilution of AFFIMER® polypeptides or controls was incubated with HSA at a final concentration of 10 μM for 90 minutes. Plates were then washed, and a […] polyclonal antibody, anti-HSA (HRP-conjugated) (Abcam), was added for 90 minutes. After a last washing step, TMB was added for the development of the experiment and the plates were read at 450 nm. The EC₅₀ was then calculated using the interpolated non-linear four-parameters standard curve (FIG. 10).

[9] = biological target: T2, PD-L1 on cells (NCI-H441 cells; aAPC …); assay: flow cytometry, % positive cells, NCI-H441 cells (endogenous PD-L1)
Description: (§3) Lung cancer cell line (NCI-H441 (ATCC), CHO-K1 recombinant cell line overexpressing PD-L1 aAPC/CHO-K1 (Promega J1252)) and a negative cell line (CHO-K1, ATCC) were used to assess AFFIMER® agent binding capacity to PD-L1 by flow cytometry.
(§4) Briefly, 50 000 cells were added to each well of a 96-well microplate. After this step and each subsequent step, cells were washed twice with PBS+2 mM EDTA using 350g centrifugation for 3 minutes at 4° C. All steps were performed at 4° C. using assay buffer comprising 5% FBS, 2 mM EDTA and 0.05% sodium azide in PBS unless otherwise stated. Independent AFFIMER® agent dilutions were prepared in duplicate and added to the plates. […] Fixation was performed for 10 minutes at 4° C. with Fixation Buffer (Bio-techne FC004). Cells were resuspended in 100 ul assay buffer prior the acquisition of the data. 5000 events were collected by Flow cytometry (Millipore Guava 12HT). The results were gated on live cells and singlets (SSC-H vs SSC-A). The percentage of cells expressing PD-L1 bound by the AFFIMER® agent (positive cells) was determined by using as negative control (background) where the wells were stained with the AF488 conjugated secondary antibody only without AFFIMER® agent. The average of the duplicate wells was used to calculate EC₅₀ using a four-parameter non-linear regression curve fit using Graphpad Prism software. […]

[10] = biological target: T2, PD-L1 on cells (NCI-H441 cells; aAPC …); assay: flow cytometry on NCI-H441 cells endogenously expressing PD-L1, anti-cystatin A antibody and AF488 secondary antibody, % positive cells
[11] = biological target: T3, human PD-L1-Fc (R&D Systems); assay: PD-L1/PD-1 competition ELISA (binding inhibition %): human PD-1-Fc coated, AFFIMER preincubated with huPD-L1-Fc at its EC80, bound PD-L1 detected; blocked ligand: human PD-1-Fc. The table column is headed 'EC50 (nM)'; the text calls the values IC50
Description: Plates were washed two times with washing buffer (PBS, Tween 20 0.1%) with a plate washer and saturated with Casein 5% (Sigma) in PBS for 90 minutes at room temperature (25±1° C.). […] Plates were washed 3 times as described previously. […] Plates were washed 3 times as described previously and Streptavidin-HRP was added, and the plates were incubated for 30 minutes at room temperature (25±1° C.). Plates were washed a last time and the substrate (TMB; Pierce Thermo-Scientific) was added to the plate. After 10 minutes, the reaction was stopped using an acidic solution and the plates were read at absorbance 450-630 nm. The IC₅₀ was then calculated using the interpolated non-linear four-parameters standard curve.

[12] = biological target: T2, PD-L1 on cells (NCI-H441 cells; aAPC …); assay: flow cytometry, % positive cells, aAPC PD-L1/CHO-K1 cells (overexpressing PD-L1)
Description: as §3, §4

[13] = biological target: T2, PD-L1 on cells (NCI-H441 cells; aAPC …); assay: cell-based or functional assay
[14] = biological target: T3, human PD-L1-Fc (R&D Systems); assay: SPR (Biacore) kinetics: human PD-L1-Fc immobilised on a CM5 chip, AFFIMER as analyte
[15] = biological target: T1, human serum albumin (HSA); assay: SPR (Biacore) kinetics: HSA immobilised on a CM5 chip, AFFIMER as analyte, pH 7.4
[16] = biological target: T1, human serum albumin (HSA); assay: HSA binding ELISA: HSA coated, anti-cystatin A detection

T2 sequence (Q9NZQ7 19-290): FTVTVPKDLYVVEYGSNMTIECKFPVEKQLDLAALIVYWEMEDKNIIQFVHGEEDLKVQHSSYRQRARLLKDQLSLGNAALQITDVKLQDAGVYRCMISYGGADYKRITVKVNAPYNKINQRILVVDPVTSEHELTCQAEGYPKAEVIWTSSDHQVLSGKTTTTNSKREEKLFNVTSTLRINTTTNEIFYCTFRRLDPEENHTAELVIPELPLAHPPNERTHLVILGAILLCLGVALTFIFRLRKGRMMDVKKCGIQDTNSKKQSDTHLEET
T1 sequence (P02768 25-609): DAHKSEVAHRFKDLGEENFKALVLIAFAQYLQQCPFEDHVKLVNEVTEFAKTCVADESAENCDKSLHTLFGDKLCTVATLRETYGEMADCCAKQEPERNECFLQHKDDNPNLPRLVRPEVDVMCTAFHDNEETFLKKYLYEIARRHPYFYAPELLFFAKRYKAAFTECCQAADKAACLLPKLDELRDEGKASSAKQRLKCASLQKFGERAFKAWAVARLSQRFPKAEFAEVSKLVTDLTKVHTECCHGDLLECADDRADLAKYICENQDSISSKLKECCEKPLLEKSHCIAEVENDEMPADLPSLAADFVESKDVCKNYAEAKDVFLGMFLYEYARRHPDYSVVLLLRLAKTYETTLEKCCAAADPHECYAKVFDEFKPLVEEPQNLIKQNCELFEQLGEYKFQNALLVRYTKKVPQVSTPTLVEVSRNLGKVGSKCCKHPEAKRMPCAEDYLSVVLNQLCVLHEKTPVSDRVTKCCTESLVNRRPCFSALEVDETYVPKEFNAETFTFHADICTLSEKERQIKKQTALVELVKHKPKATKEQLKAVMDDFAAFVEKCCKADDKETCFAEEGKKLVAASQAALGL
T3 sequence (Q9NZQ7 19-239 limits assumed): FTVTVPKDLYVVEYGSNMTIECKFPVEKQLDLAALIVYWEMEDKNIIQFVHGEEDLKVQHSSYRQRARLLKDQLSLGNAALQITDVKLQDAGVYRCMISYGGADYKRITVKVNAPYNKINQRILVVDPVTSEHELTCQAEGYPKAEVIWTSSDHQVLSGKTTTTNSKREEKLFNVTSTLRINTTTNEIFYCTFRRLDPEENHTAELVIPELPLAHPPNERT

| Binder | Kd [1] | koff [1] | kon [1] | EC50 [2] | Kd [3] | koff [3] | kon [3] | binding result [4] | Kd [14] | koff [14] | kon [14] | Kd [15] | koff [15] | kon [15] | further results |
| --- | --- | --- | --- | --- | --- | --- | --- | --- | --- | --- | --- | --- | --- | --- | --- |
| B1 | 1.08 nM | 0.00272 s⁻¹ | 2.52e+06 M⁻¹ s⁻¹ | 0.02 nM | 7.36 nM | 0.00276 s⁻¹ | 375000 M⁻¹ s⁻¹ | no binding |  |  |  |  |  |  |  |
| B2 | 5.01 nM | 0.00364 s⁻¹ | 727000 M⁻¹ s⁻¹ | 0.02 nM | 3.36 nM | 0.00271 s⁻¹ | 808000 M⁻¹ s⁻¹ |  |  |  |  |  |  |  | EC50 [5]: 0.03 nM; EC50 [6]: 0.02 nM; Kd [7]: 0.224 nM; EC50 [8]: 0.56 nM; EC50 [9]: 0.64 nM and 1.28 nM; EC50 (read off the curve) [10]: ~1 nM; IC50 [11]: 2.3 nM; EC50 [12]: 0.1 nM; half-maximal concentration of PD-1/PD-L1 blockade (% of inhibition, NFAT-luciferase reporter cells; IC50) [13]: 105 nM |
| B3 |  |  |  |  |  |  |  |  | 0.172 nM | 0.000212 s⁻¹ | 1.24e+06 M⁻¹ s⁻¹ | 0.18 nM | 0.00189 s⁻¹ | 1.05e+07 M⁻¹ s⁻¹ |  |
| B4 | 1.45 nM | 0.00259 s⁻¹ | 1.79e+06 M⁻¹ s⁻¹ | 0.04 nM | 1.28 nM | 0.00205 s⁻¹ | 1.61e+06 M⁻¹ s⁻¹ | no binding |  |  |  |  |  |  |  |
| B5 |  |  |  |  |  |  |  |  |  |  |  | 1.07 nM | 0.00436 s⁻¹ | 4.06e+06 M⁻¹ s⁻¹ | EC50 [16]: 0.85 nM |
| B6 |  |  |  |  |  |  |  |  | 0.0668 nM | 9.33e-05 s⁻¹ | 1.4e+06 M⁻¹ s⁻¹ | 1.54 nM | 0.00273 s⁻¹ | 1.77e+06 M⁻¹ s⁻¹ |  |

Source: US20240409638A1 (AVACTA LIFE SCIENCES, published 2024)
